Laboratory results taken from article PMC8835667.

Biological target: tripartite motif containing 28 (TRIM28) (human (endogenous in HeLa)) (UniProt Q13263)
Sequence (Q13263 whole entry): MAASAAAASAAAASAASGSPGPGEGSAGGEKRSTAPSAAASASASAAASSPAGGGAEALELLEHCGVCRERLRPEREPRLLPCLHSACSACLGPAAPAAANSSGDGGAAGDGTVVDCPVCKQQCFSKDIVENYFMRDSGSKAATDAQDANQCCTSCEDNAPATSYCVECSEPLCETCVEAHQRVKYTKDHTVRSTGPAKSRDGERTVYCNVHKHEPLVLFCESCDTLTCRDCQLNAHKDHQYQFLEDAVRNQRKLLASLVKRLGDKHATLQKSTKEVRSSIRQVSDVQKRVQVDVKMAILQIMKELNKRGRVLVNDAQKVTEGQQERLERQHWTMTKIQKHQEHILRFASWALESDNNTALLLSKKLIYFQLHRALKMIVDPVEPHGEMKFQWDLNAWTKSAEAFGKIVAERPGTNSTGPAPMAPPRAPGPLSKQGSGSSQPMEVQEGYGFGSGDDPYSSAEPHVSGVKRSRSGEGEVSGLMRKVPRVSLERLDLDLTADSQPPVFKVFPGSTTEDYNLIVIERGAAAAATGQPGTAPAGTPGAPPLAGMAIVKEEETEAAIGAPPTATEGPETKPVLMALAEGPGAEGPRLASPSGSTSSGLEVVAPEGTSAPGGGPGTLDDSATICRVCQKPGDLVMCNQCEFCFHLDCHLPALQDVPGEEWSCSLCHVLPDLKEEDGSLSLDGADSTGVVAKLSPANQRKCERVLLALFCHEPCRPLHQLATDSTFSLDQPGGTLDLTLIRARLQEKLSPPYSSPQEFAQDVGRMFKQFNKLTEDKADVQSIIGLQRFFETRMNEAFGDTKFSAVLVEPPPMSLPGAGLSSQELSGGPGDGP

- transcriptional repression factor over Gal4-DBD alone, dual luciferase reporter assay in HeLa cells (KRAB domain as Gal4-DBD fusion): 0.9 fold
Substance: GST fusion of wild-type PRDM9 aKRAB-A with ZNF10-B (domain or fragment)
